Results published in patent US20170088632A1 (OMEROS, published 2017).

Columns and labels:
[1] = biological target: T1, human MASP-2A (catalytically inactive human MASP-2, Ser618 to Ala618) (human, UniProt O00187 16-686); test: titration ELISA on coated human MASP-2A ('Binding affinity'), scFv
T1 construct: the ELISA and Biacore methods say only 'MASP-2A', so a tag may have been present; also called huMASP2A; huMASP-2A

[2] = biological target: T2, human MASP-2 (human, UniProt O00187 16-686); test: cell-based or functional assay
T2 sequence (O00187 16-686): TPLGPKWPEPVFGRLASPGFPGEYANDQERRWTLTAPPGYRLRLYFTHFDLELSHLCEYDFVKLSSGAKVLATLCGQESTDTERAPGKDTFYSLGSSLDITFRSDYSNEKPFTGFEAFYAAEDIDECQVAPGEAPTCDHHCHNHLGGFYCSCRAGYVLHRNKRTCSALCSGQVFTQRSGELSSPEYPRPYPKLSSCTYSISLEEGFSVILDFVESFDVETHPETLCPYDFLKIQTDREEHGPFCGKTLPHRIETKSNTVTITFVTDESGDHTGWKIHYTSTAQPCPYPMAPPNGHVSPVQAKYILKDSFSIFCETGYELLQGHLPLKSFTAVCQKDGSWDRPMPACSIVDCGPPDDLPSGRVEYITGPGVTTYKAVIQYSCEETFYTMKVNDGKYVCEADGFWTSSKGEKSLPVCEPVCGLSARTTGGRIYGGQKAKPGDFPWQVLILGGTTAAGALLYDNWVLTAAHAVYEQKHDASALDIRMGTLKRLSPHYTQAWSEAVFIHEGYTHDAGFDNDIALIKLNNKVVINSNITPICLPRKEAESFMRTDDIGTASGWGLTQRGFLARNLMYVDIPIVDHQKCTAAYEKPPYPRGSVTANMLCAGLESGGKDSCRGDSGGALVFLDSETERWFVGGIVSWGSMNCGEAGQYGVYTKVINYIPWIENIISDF

[3] = biological target: rat MASP-2 (in rat serum) (rat, UniProt Q9JJS8 20-685); test: cell-based or functional assay
Chain of rat MASP-2 (in rat serum) (Q9JJS8 other isoform, or with tags, fused parts or gaps limits assumed): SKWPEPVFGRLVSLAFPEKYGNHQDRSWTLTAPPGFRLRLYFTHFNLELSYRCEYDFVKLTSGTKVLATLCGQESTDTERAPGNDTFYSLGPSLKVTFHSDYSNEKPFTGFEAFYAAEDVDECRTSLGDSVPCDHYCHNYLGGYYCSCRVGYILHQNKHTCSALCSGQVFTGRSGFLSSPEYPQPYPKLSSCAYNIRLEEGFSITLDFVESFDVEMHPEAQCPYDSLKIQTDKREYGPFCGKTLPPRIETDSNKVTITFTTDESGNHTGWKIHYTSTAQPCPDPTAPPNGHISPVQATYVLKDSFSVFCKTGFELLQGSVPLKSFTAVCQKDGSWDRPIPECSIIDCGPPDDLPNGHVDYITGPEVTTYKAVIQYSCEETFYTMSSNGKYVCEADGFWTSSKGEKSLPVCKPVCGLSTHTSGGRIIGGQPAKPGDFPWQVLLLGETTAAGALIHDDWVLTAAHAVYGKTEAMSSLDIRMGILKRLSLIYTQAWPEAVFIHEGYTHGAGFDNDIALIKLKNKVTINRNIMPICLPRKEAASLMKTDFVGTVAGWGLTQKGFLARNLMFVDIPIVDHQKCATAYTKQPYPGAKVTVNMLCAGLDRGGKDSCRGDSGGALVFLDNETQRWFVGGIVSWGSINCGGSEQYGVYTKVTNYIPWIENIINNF

[4] = biological target: T3, African Green monkey MASP-2 (in African Green monkey serum) (African Green monkey); test: cell-based or functional assay
[5] = biological target: T2, human MASP-2; test: cell-based or functional assay; remark: listed apart in the source
[6] = biological target: T2, human MASP-2; test: cell-based or functional assay; remark: listed apart in the source
[7] = biological target: T3, African Green monkey MASP-2 (in African …); test: cell-based or functional assay; remark: listed apart in the source
[8] = biological target: T2, human MASP-2; test: cell-based or functional assay; remark: listed apart in the source
[9] = biological target: T2, human MASP-2; test: cell-based or functional assay; remark: listed apart in the source
[10] = biological target: T3, African Green monkey MASP-2 (in African …); test: cell-based or functional assay; remark: listed apart in the source
[11] = biological target: T2, human MASP-2; test: cell-based or functional assay; remark: listed apart in the source
[12] = biological target: T1, human MASP-2A (catalytically inactive …); test: ELISA on adsorbed human MASP-2A, purified scFv monomer
[13] = biological target: T1, human MASP-2A (catalytically inactive …); test: ELISA, purified scFv titrated on physically adsorbed human MASP-2A
[14] = biological target: T1, human MASP-2A (catalytically inactive …); test: SPR (Biacore), MASP-2A amine coupled to CM5 chip, scFv monomer in solution
[15] = biological target: T1, human MASP-2A (catalytically inactive …); test: SPR (Biacore), scFv captured by anti-cMyc antibody, MASP-2A in solution
[16] = biological target: T2, human MASP-2; test: cell-based or functional assay; remark: listed apart in the source
[17] = biological target: T1, human MASP-2A (catalytically inactive …); test: Biacore, microscale-expressed scFv on MASP-2A coated CM5 chip
Procedure: Therefore, three different scFv libraries were constructed by PCR where the amino acid positions 1, 2 and 3 were randomized to the set of all possible 20 amino acids using degenerate codons. After cloning the libraries, microscale expression was performed and scFv binding was monitored on a MASP-2A coated CM5 chip (not shown).

T1 sequence (O00187 16-686 S633A): as the sequence (O00187 16-686) above, with S618A counted along it

B1: scFv mother clone 17N16 (scFv)
scFv: QVQLQQSGPGLVKPSQTLSLTCAISGDSVSSTSAAWNWIRQSPSRGLEWLGRTYYRSKWYNDYAVSVKSRITINPDTSKNQFSLQLNSVTPEDTAVYYCARDPFGVPFDIWGQGTMVTVSSKLSGSASAPKLEEGEFSEARVSYVLTQPPSVSVAPGQTARITCGGNNIGSKNVHWYQQKPGQAPVLVVYDDSDRPSGIPERFSGSNSGNTATLTVSRVEAGDEADYYCQVWDTTTDHVVFGGGTKLTVLAAAGSEQKLISEEDLNSHHHHHH
notes: also called 17N16mc; 17N16m
In the case of B1, the Kd [1] is reported as 18.9 nM, the “IC50, C3c release, 1% human serum (first experiment)” value [2] is reported as 65.3 nM and the “IC50, C3c release, 1% human serum (second experiment)” value [2] is reported as 73.5 nM. For the same binder, the “IC50, C3c release, 0.375% rat serum (second experiment)” value [3] was 196 nM, the “IC50, C3c release, 0.2% African Green serum (first experiment)” value [4] was 92.9 nM and the “IC50, C3c release, 0.2% African Green serum (second experiment)” value [4] was 81.4 nM. The “1% human serum C3 assay IC50” value [5] was 68 nM, the “Functional IC50, C3b deposition, human serum Exp #1” value [6] was 15.4 nM and the “Functional IC50, C3b deposition, human serum Exp #2” value [6] was 65.4 nM. For the same binder, the “Functional IC50, C3b deposition, human serum Exp #3” value [6] was 24.8 nM, the “Functional IC50, C3b deposition, human serum Exp #4” value [6] was 19.2 nM and the “Functional IC50, C3b deposition, non-human primate serum Exp #1” value [7] was 95.6 nM. The “Functional IC50, C3b deposition, non-human primate serum Exp #2” value [7] was 58.8 nM, the “Complement assay IC50” value [8] was 8.8 nM and the “C3 Assay IC50 in dilute serum (1%), human serum Exp #1” value [9] was 19 nM. The “C3 Assay IC50 in dilute serum (1%), human serum Exp #2” value [9] was 24 nM, the “C3 Assay IC50 in dilute serum (1%), human serum Exp #3” value [9] was 65 nM and the “C3 Assay IC50 in dilute serum (1%), human serum mean” value [9] was 36 nM. The “C3 Assay IC50, non-human primate serum Exp #1” value [10] was 95 nM, the “C3 Assay IC50, non-human primate serum Exp #2” value [10] was 58 nM and the “C3 Assay IC50, non-human primate serum mean” value [10] was 76 nM. The “Inhibitory activity in Human Serum IC50 (C3b deposition, 0.5% human serum)” value [11] was 15.4 nM, the Kd [12] was 18.9 nM and the “EC50 (read off the curve)” value [13] was ~0.9 nM. For the same binder, the Kd [14] was 3560 nM, the Kd [15] was 1.68 nM and the “C3 convertase assay using 1% human serum, IC50 (first experiment)” value [16] was 36.2 nM. For the same binder, the “C3 convertase assay using 1% human serum, IC50 (second experiment)” value [16] was 77.6 nM.

B2: scFv mutagenesis clone #90 of 17D20 (scFv)
scFv: QVTLKESGPVLVKPTETLTLTCTVSGFSLSRGKMGVSWIRQPPGKALEWLAHIFSSDEKSYRTSLKSRLTISKDTSKNQVVLTMTNMDPVDTATYYCARIRPGGIDYWGQGTLVTVSSKLSGSASAPKLEEGEFSEARVQPVLTQPPSVSVSPGQTASITCSGDKLGDKFAYWYQQKPGHSPVLVIYQDNKRPSGIPGRFSGSNSGNTATLTISGTQAMDEADYYCQAWDSSTAVFGTGTKVTVLAAAGSEQKLISEEDLNSHHHHHH
B2: binds [17].
